Laboratory results taken from the DeepSol protein solubility set.

experiment: soluble on expression in E. coli; label from the status in PepcDB or PDB records

Row | Sequence | soluble on expression in E. coli
1 | MQLVREKEFVNQYHYDARNLEWEKENGTPETNFEVTFQLIDKDEQQKETVIVSVLQFVIVKEEFVISGVISQMVRILDRLVDKPSEFTQEEVESLAAPLLDMVKRLTYEVTEIALDRPGIHLEFKN | not soluble
2 | MQNEKLDHESVTQAMQPKDTPELRALYKSFEEESIIPLWTQLGDLMPIHPKSKAVPHVWKWSTLLRLARKSGELVPVGRGGERRALGLANPGLGGNAYISPTMWAGIQYLGPRETAPEHRHSQNAFRFVVEGEGVWTVVNGDPVRMSRGDLLLTPGWCFHGHMNDTDQPMAWIDGLDIPFSQQMDVGFFEFGSDRVTDYATPNFSRGERLWCHPGLRPLSGLQNTVASPIGAYRWEFTDRALTEQLLLEDEGQPATVAPGHAAIRYVNPTTGGDVMPTLRCEFHRLRAGTETATRNEVGSTVFQVFEGAGAVVMNGETTKLEKGDMFVVPSWVPWSLQAETQFDLFRFSDAPIMEALSFMRTKIEGQK | soluble
3 | MQNLRRAVFAGLVAGTLSEGAAATAGDGGFVEDSELQFLARTYYFNRDYRDSPNNAGRNRFKPRSERNGYREEATQGLRLQFASGYTPGSLGFGLDAHAMLGLQLDSGGGRTGTGNLPVGADGHPDHRYGKVGGALRLRHGETRLKYGQTTTSAPVFAASSNRTLAGMAYGLLLEDRSFDGLLLEGGRFTAASGPGESKVRGDISTVYGRLGAYPVRLDAVGFLGGQWQATERLQLSLYASRFDDIWQQAYFGASHRQPLGGERALRVDLDAYRTRDSGQSRFGRIDTLTSSLALGYEHGPQRITLAYQRVHGEQPFDYMAFGDGRSSASMVLANSVGYSDFNGPGERSWQLRYDLDLGALGLPGLSLHALHARGRAGASASSAAESIYAGLYGRDGRHRENDLGFAYRVKAGPLAGLALRASQAWHRGNASYLDGDIDETRLVVDYSRSIW | not soluble
4 | MQNRKFLTHHEINLLLQSVKQKSCSSRDVCMILLAYFHGLRVSELLSLQLSDLELTTEKIYIQRIKNGFSTVHPLQKEEVIAITNWLNERNSLNVKHFNDNPWLFVSRTGKPLSRQRFYNI | not soluble
5 | MQNSALKAWLDSSYLSGANQSWIEQLYEDFLTDPDSVDANWRSTFQQLPGTGVKPDQFHSQTREYFRRLAKDASRYSSTISDPDTNVKQVKVLQLINAYRFRGHQHANLDPLGLWQQDKVADLDPSFHDLTEADFQETFNVGSFASGKETMKLGELLEALKQTYCGPIGAEYMHITSTEEKRWIQQRIESGRATFNSEEKKRFLSELTAAEGLERYLGAKFPGAKRFSLEGGDALIPMLKEMIRHAGNSGTREVVLGMAHRGRLNVLVNVLGKKPQDLFDEFAGKHKEHLGTGDVKYHMGFSSDFQTDGGLVHLALAFNPSHLEIVSPVVIGSVRARLDRLDEPSSNKVLPITIHGDAAVTGQGVVQETLNMSKARGYEVGGTVRIVINNQVGFTTSNPLDARSTPYCTDIGKMVQAPIFHVNADDPEAVAFVTRLALDFRNTFKRDVFIDLVCYRRHGHNEADEPSATQPLMYQKIKKHPTPRKIYADKLEQEKVATLEDATEMVNLYRDALDAGDCVVAEWRPMNMHSFTWSPYLNHEWDEEYPNKVEMKRLQELAKRISTVPEAVEMQSRVAKIYADRQAMAAGEKLFDWGGAENLAYATLVDEGIPVRLSGEDSGRGTFFHRHAVIHNQSNGSTYTPLQHIHNGQGAFRVWDSVLSEEAVLAFEYGYATAEPRTLTIWEAQFGDFANGAQVVIDQFISSGEQKWGRMCGLVMLLPHGYEGQGPEHSSARLERYLQLCAEQNMQVCVPSTPAQVYHMLRRQALRGMRRPLVVMSPKSLLRHPLAVSSLEELANGTFLPAIGEIDELDPKGVKRVVMCSGKVYYDLLEQRRKNNQHDVAIVRIEQLYPFPHKAMQEVLQQFAHVKDFVWCQEEPLNQGAWYCSQHHFREVIPFGASLRYAGRPASASPAVGYMSVHQKQQQDLVNDALNVE | soluble
6 | MQNTIIQKAVNKDLNSILEITKDALNAMKTMNFHQWDENYPNEIVFQEDIQAQELYVFKENDEILGFICINEKFKPEFYKQVIFNKNYDDKAFYLHRLAVKQNAKGKGVAQKLLNFCENFALENHKASLRADTHSKNFPMNSLFKKLDFNFCGNFDIPNYQDPFLAYEKILNQKAF | not soluble
7 | MQQIFFKDPILGEVLFDQQTKWMYELVETEAFRRLRNIKQLGINFHFYPGGVHT | not soluble
8 | MQQQETFRHILSVLVQDVDGIISRVSAMFTRRSFSLVSFVSGKTEMHGINRITIVVDASTQDIEQITKQLNKLIPVLKVVRLDEDVTVARALMLVKVSADASNRPQVVDAAKIFRAHVVDVAPDSVVIEATGNKGKLRALLDVLEPFGIRELISSGQIALNRGSKTMAPQSSRS | not soluble
